Source: paper PMC9881158, “The DEAD-box protein Dbp6 is an ATPase and RNA annealase interacting with the peptidyl transferase center (PTC) of the ribosome” (Nucleic Acids Research, 2023)
Substitutions are numbered along the chain they refer to.

Key:
[1] = molecular target: T1, Dbp6 ΔN (Saccharomyces cerevisiae, UniProt P53734 1-629, del24-128); experiment: EMSA; 0.5 uM protein; like WT; EMSA: 1 nM 32P-RNA, RB 1x (composition not in the material), RNasin, 15 min at 30 C, native PAGE in TBE; bridging: 0.8 uM Dbp6, RB 1x, 15 min at 30 C; settings: protein: recombinant; tags: N-terminal His6; chain copies: 2; label: 32P
T1 sequence: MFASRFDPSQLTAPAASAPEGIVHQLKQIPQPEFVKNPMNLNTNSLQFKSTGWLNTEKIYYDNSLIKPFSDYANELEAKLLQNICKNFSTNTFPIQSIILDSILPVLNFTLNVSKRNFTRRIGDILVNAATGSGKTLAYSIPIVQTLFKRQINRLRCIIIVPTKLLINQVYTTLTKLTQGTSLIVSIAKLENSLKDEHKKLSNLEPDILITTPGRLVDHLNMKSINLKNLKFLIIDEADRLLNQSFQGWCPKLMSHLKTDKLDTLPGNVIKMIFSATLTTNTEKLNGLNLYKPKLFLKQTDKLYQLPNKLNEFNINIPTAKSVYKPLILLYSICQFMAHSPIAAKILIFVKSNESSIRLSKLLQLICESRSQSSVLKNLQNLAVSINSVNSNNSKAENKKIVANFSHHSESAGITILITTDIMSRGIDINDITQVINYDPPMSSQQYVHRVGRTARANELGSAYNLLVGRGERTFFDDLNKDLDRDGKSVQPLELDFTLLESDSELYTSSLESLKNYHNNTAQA

[2] = molecular target: T2, Dbp6 M-II (Saccharomyces cerevisiae, UniProt P53734 1-629, E342A); experiment: EMSA; 0.25 uM protein; stronger than WT; EMSA: 1 nM 32P-RNA, RB 1x (composition not in the material), RNasin, 15 min at 30 C, native PAGE in TBE; bridging: 0.8 uM Dbp6, RB 1x, 15 min at 30 C; settings: protein: recombinant, tags: N-terminal His6, chain copies: 2
T2 sequence: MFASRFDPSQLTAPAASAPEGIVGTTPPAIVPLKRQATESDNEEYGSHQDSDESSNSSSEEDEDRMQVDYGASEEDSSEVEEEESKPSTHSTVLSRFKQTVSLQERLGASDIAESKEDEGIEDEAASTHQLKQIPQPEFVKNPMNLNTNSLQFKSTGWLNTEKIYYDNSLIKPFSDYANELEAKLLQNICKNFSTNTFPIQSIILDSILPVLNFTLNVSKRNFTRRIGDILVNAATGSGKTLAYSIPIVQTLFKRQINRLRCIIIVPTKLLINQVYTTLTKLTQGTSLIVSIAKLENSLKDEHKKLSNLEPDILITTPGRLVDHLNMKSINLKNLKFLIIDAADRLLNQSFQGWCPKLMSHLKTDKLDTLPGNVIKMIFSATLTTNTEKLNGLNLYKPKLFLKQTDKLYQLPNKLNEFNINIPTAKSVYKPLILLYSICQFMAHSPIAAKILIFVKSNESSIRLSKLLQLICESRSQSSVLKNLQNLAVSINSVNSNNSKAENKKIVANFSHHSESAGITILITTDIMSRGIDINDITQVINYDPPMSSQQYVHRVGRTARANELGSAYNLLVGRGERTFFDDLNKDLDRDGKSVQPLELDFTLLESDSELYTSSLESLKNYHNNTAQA

[3] = molecular target: T3, Dbp6 M-I (Saccharomyces cerevisiae, UniProt P53734 1-629, K240A); experiment: EMSA; 0.5 uM protein; stronger than WT; EMSA: 1 nM 32P-RNA, RB 1x (composition not in the material), RNasin, 15 min at 30 C, native PAGE in TBE; bridging: 0.8 uM Dbp6, RB 1x, 15 min at 30 C; settings: protein: recombinant; tags: N-terminal His6; chain copies: 2; label: 32P
T3 sequence: T2 sequence with K240A, A342E

[4] = molecular target: T1, Dbp6 ΔN; experiment: EMSA; 0.25 uM protein; like WT; EMSA: 1 nM 32P-RNA, RB 1x (composition not in the material), RNasin, 15 min at 30 C, native PAGE in TBE; bridging: 0.8 uM Dbp6, RB 1x, 15 min at 30 C; settings: protein: recombinant; tags: N-terminal His6; chain copies: 2; label: 32P on ss38-mer; 3' overhang 20 nt on strand 1; 38 bp region with one C-C mismatch
[5] = molecular target: T3, Dbp6 M-I; experiment: EMSA; 0.25 uM protein; not increased over WT; EMSA: 1 nM 32P-RNA, RB 1x (composition not in the material), RNasin, 15 min at 30 C, native PAGE in TBE; bridging: 0.8 uM Dbp6, RB 1x, 15 min at 30 C; settings: protein: recombinant; tags: N-terminal His6; chain copies: 2; label: 32P on ss38-mer; 3' overhang 20 nt on strand 1; 38 bp region with one C-C mismatch

Measured: binding result

CAGAACCGCUACACUGAAAUGAUCAAUUCCGGUCUCCC (ssRNA) [ss38-mer]
binds: [1] | [2]; label: 32P | [3]

B1: ds38/58 hemi-duplex (dsRNA)
RNA 1: GGGAGACCGGAAUUCAUCAUUUCAGUGUAGCGGUUCUGACGUGCAAAUCGAUCGUCGA
RNA 2: CAGAACCGCUACACUGAAAUGAUCAAUUCCGGUCUCCC
binds: [4] | [2]; label: 32P on ss38-mer, 3' overhang 20 nt on strand 1, 38 bp region with one C-C mismatch | [5]
